Numbering of substitutions follows the chain as printed.
B1: hu37D3.v28 (antibody, V domains shown)
VH: EVQLVESGGGLVQPGGSLRLSCAASGLIFRSYGMSWVRQAPGKGLEWVATINSGGTYTYYPDSVKGRFTISRDNSKNTLYLQMNSLRAEDTAVYYCANSYSGAMDYWGQGTLVTVSS
VL: DDVLTQTPLSLPVTPGQPASISCRSSQSIVHSNGNTYFEWYLQKPGQSPQLLIYKVSNRFSGVPDRFSGSGSGTDFTLKISRVEAEDVGVYYCFQGSLVPWTFGQGTKVEIK
B2: hu37D3-H9.v31.2 (antibody, V domains shown)
VH: B1 VH
VL: B1 VL with G34A, N35V
B3: hu37D3-H9.v30.4 (antibody, V domains shown)
VH: B1 VH
VL: B1 VL with N33L
B4: hu37D3.v28.B1 (antibody, V domains shown)
VH: B1 VH
VL: B1 VL with N33I, Y37F
B5: hu37D3.v28.53 (antibody, V domains shown)
VH: B1 VH
VL: B1 VL with D1E, N33R
B6: hu37D3-H9.v31.3 (antibody, V domains shown)
VH: B1 VH
VL: B1 VL with G34A, N35I
B7: hu37D3-H9.v5.9 (antibody, V domains shown)
VH: B1 VH
VL: B1 VL with D1E, N35E
B8: hu37D3.v28.C1 (antibody, V domains shown)
VH: B1 VH
VL: B1 VL with G34N
B9: hu37D3.v28.C2 (antibody, V domains shown)
VH: B1 VH
VL: B1 VL with G34D
B10: hu37D3.v28.A6 (antibody, V domains shown)
VH: B1 VH
VL: B1 VL with F38L, L98H
B11: hu37D3-H9.v5.11 (antibody, V domains shown)
VH: B1 VH
VL: B1 VL with D1E, N35S
B12: hu37D3.v28.54 (antibody, V domains shown)
VH: B1 VH
VL: B1 VL with D1E, N33L
B13: hu37D3.v28.B2 (antibody, V domains shown)
VH: B1 VH
VL: B1 VL with N33M, Y37F
B14: hu37D3.v28.A2 (antibody, V domains shown)
VH: B1 VH
VL: B1 VL with L98H
B15: hu37D3-H9.v31.9 (antibody, V domains shown)
VH: B1 VH
VL: B1 VL with G34A, T36I
B16: hu37D3.v28.B6 (antibody, V domains shown)
VH: B1 VH
VL: B1 VL with N33D, Y37R
B17: hu37D3-H9.v30.1 (antibody, V domains shown)
VH: B1 VH
VL: B1 VL with N33G
B18: hu37D3-H9.v5.2 (antibody, V domains shown)
VH: B1 VH
VL: B1 VL with D1E, N33S
B19: hu37D3.v28.E2 (antibody, V domains shown)
VH: B1 VH
VL: B1 VL with H31Q
B20: hu37D3-H9.v5.10 (antibody, V domains shown)
VH: B1 VH
VL: B1 VL with D1E, N35A
B21: hu37D3-H9.v31.8 (antibody, V domains shown)
VH: B1 VH
VL: B1 VL with G34A, T36V
B22: hu37D3.v28.55 (antibody, V domains shown)
VH: B1 VH
VL: B1 VL with G34Q
B23: hu37D3.v28.E1 (antibody, V domains shown)
VH: B1 VH
VL: B1 VL with H31N
B24: hu37D3.v28.52 (antibody, V domains shown)
VH: B1 VH
VL: B1 VL with D1E, N33K
B25: hu37D3-H9.v31.5 (antibody, V domains shown)
VH: B1 VH
VL: B1 VL with G34A, N35F
B26: hu37D3-H9.v30.2 (antibody, V domains shown)
VH: B1 VH
VL: B1 VL with N33T
B27: hu37D3-H9.v5.8 (antibody, V domains shown)
VH: B1 VH
VL: B1 VL with D1E, N35Q
B28: hu37D3.v28.D1 (antibody, V domains shown)
VH: B1 VH
VL: B1 VL with S32A
B29: hu37D3-H9.v5.7 (antibody, V domains shown)
VH: B1 VH
VL: B1 VL with D1E, N35D
B30: hu37D3-H9.v30.3 (antibody, V domains shown)
VH: B1 VH
VL: B1 VL with N33V
B31: hu37D3.v28.A4 (antibody, V domains shown)
VH: B1 VH
VL: B1 VL with F38L
notes: also called hu37D3-H9.v28.A4
B32: hu37D3-H9.v31.6 (antibody, V domains shown)
VH: B1 VH
VL: B1 VL with G34A, N35Y
B33: hu37D3.v28.57 (antibody, V domains shown)
VH: B1 VH
VL: B1 VL with G34F
B34: hu37D3-H9.v31.7 (antibody, V domains shown)
VH: B1 VH
VL: B1 VL with G34A, N35R
B35: hu37D3.v28.56 (antibody, V domains shown)
VH: B1 VH
VL: B1 VL with G34Y

What follows are binders tested against T1, recombinant human Tau monomer, 2N4R isoform (amino acids 2-441) (human, UniProt P10636-8 2-441) (assay: SPR; Normalized Rmax post-stress (2 weeks 40 C) / pre-stress).
T1 construct: range 2-441; N-terminal His-tag removed with TEV protease; also called monomeric Tau
Experimental: (§1) Briefly, IgGs in 1 mL culuture were captured using tip columns that were custom packed with 20 μL MabSelect SuRe resin (Glygen Corp & GE Healthcare). After washing with 1×PBS pH 7.4, IgGs were eluted into 160 μL of 50 mM phosphoric acid pH 3 and neutralized with 12 μL of 20×PBS pH 11. MabSelect SuRe tip columns were stripped in 0.1 M NaOH and regenerated with 1×PBS pH 7.4 for consecutive use of up to 15 times. Purified antibodies in 96-well format were normalized to 0.1 mg/ml using a Hamilton Star liquid handling robot. The “pre-stress” samples were kept at approximately 4° C. and the “post-stress” samples were incubated at 40° C. for two weeks in a PCR machine. Functional stability of the variants was compared by running surface plasmon resonance kinetics experiments with the “pre-stress” and “post-stress” antibody preps. The antibodies were assessed using a human antibody capture CM5 Series S chip generated using the GE Biacore human IgG capture kit and a Biacore T200 instrument. Antibodies diluted to 2 μg/ml were immobilized using a 15 second injection time and 10 μl/min flow rate. Binding to Tau monomer at 0 nM, 26.5 nM and 265 nM, at 25° C., using a flow rate of 40 μl/min, was monitored for a 180 second association phase followed by a 300 second dissociation phase. Samples were run in 10 mM HEPES pH7.4, 150 mM NaCl, 0.05% Tween 20 (HBSP) using a multi-cycle kinetics format. Data was analyzed using BIAevaluation software, fitting a 1:1 binding model. The resulting affinity (KD) values are shown in FIG. 8A-D. A Stability Index was also calculated, using the rationale that affinity-compromised antibodies (due for example to deamidation of key residues) are expected to contribute equally to the IgG capture level (“Ligand Level”) but to contribute less to the measured Tau binding, and that this would be reflected in the experimentally derived value for Rmax. To account for variations in the amount of each antibody captured, Rmax was normalized for the antibody capture level (as measured by “Ligand Level”, Response Units immobilized during antibody capture). Thus Normalized Rmax is calculated as the experimental Rmax (units=RU) divided by the “Ligand Level” (Evaluation output representing the RU captured during the hIgG capture step, units=RU), and Stability Index is calculated here as Normalized Rmax (post-stress) divided by Normalized Rmax (pre-stress).

T1 sequence (P10636 other isoform, or with tags, fused parts or gaps limits assumed): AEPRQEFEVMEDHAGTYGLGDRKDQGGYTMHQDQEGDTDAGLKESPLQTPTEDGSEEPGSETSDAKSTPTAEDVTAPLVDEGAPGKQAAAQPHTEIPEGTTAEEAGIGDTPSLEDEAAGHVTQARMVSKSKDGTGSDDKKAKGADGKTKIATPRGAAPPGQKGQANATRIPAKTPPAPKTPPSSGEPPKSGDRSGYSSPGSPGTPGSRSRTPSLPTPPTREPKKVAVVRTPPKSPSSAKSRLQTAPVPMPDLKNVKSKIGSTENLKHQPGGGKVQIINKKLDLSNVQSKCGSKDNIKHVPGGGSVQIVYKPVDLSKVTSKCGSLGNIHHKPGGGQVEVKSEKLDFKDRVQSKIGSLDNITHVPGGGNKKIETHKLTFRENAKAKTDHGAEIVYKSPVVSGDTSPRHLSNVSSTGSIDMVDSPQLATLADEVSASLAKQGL

Stability Index	Binder
78%	B1
90%	B2
87%	B3
101%	B4
76%	B5
93%	B6
95%	B7
77%	B8
75%	B9
82%	B10
71%	B11
82%	B12
83%	B13
72%	B14
81%	B15
46%	B16
87%	B17
97%	B18

Stability Index	Binder
28%	B19
78%	B20
78%	B21
82%	B22
46%	B23
80%	B24
85%	B25
96%	B26
90%	B27
73%	B28
67%	B29
83%	B30
96%	B31
90%	B32
88%	B33
83%	B34
76%	B35

Each binder was assayed against T1, recombinant human Tau monomer, 2N4R … (assay: SPR, captured IgG, Tau monomer analyte, 1:1 model; fit-quality column: Yes).
Experimental: as §1

Kd	Binder
0.0009 µM	B1
0.0106 µM	B2
0.022 µM	B3
0.0243 µM	B4
0.0229 µM	B5
0.0098 µM	B6
0.0053 µM	B7
0.0014 µM	B8
0.0096 µM	B9
0.0383 µM	B10
0.0977 µM	B11
0.0248 µM	B12
0.0318 µM	B13
0.0326 µM	B14
0.0075 µM	B15
0.0856 µM	B16
0.0235 µM	B17
0.0109 µM	B18

Kd	Binder
0.0225 µM	B19
0.0047 µM	B20
0.0109 µM	B21
0.0026 µM	B22
0.0201 µM	B23
0.0176 µM	B24
0.0152 µM	B25
0.0042 µM	B26
0.0022 µM	B27
0.0057 µM	B28
0.013 µM	B29
0.0381 µM	B30
0.0012 µM	B31
0.0155 µM	B32
0.0044 µM	B33
0.0069 µM	B34
0.0054 µM	B35

From patent publication US20190367592A1 (AC IMMUNE, published 2019)
